One block for each binder: values may come before it.
Columns and labels:
[1] = target: M48-modified F NTAA target peptides (M48-F-P2-peptide); experiment: Gini coefficient of P2 tolerance from multiplex encoding heatmap
[2] = target: M48-modified F NTAA target peptides (M48-F-P2-peptide); experiment: Gini coefficient of P1 selectivity from multiplex encoding heatmap
[3] = target: M44-modified A NTAA target peptides (M44-A-P2-peptide); experiment: Gini coefficient of P2 tolerance from multiplex encoding heatmap
[4] = target: M44-modified A NTAA target peptides (M44-A-P2-peptide); experiment: Gini coefficient of P1 selectivity from multiplex encoding heatmap
[5] = target: M44-modified I NTAA target peptides (M44-I-P2-peptide); experiment: Gini coefficient of P2 tolerance from multiplex encoding heatmap
[6] = target: M44-modified I NTAA target peptides (M44-I-P2-peptide); experiment: Gini coefficient of P1 selectivity from multiplex encoding heatmap
[7] = target: M44-modified L NTAA target peptides (M44-L-P2-peptide); experiment: Gini coefficient of P2 tolerance from multiplex encoding heatmap
[8] = target: M44-modified L NTAA target peptides (M44-L-P2-peptide); experiment: Gini coefficient of P1 selectivity from multiplex encoding heatmap
[9] = target: M44-modified F NTAA target peptides (M44-F-P2-peptide); experiment: Gini coefficient of P2 tolerance from multiplex encoding heatmap
[10] = target: M44-modified F NTAA target peptides (M44-F-P2-peptide); experiment: Gini coefficient of P1 selectivity from multiplex encoding heatmap
[11] = target: M90-modified M NTAA target peptide; experiment: affinity comparison between P1 residues (method not specified; BLI / encoding assay)
[12] = target: M90-modified A NTAA target peptide; experiment: as above
[13] = target: M90-modified H NTAA target peptide; experiment: as above
[14] = target: M90-modified W NTAA target peptide; experiment: as above

B1: SEQ ID NO 28 (designed binder, not shown: small tags and cut ends; large carriers)
chain: QVSVQPNFQQDKFLGRWFLAGMASNSSWMREKFAALSVAKFVVAPATDGGLNTTTTLLRKNQCETFTRLLQPAGSLGSYSSRSPHLGSTVSGSVVETDYDQYALLYEQGSKGPGEDGRKAWLGSRTQTPRAELKEKFTAFSKAQGFTEDTIVFLPQTDKCMTEQ
P2 score [1]: 0.318
P1 score [2]: 0.392

B5: SEQ ID NO 22 (designed binder, not shown: small tags and cut ends; large carriers)
chain: QVSVQPNFQQDKFLGRWFTAGLASNSSWLREKFAALSHAKTVVAPATDGGLNLTVTVLRKNQCETSTLLLQPAGSLGSYSRRSPHVGSTGSVSVVETDYDQYALIYDQGSKGPGEDWRIAELVSRTQTPRAELKEKFTAFSKAQGFTEDTIVFLPQTDKCMTEQ
P2 score [7]: 0.431
P1 score [8]: 0.418

B6: SEQ ID NO 29 (designed binder, not shown: small tags and cut ends; large carriers)
chain: QVSVQPNFQQDKFLGRWFVAGVASNSSWMREKVAALSGAKVVVAPATDGGLNYTETWLRKNQCETWTGLLQPAGSLGSYSQRSPHGGSTNSLSVVETDYDQYALLYVQGSKGPGEDPRVAVLWSRTQTPRAELKEKFTAFSKAQGFTEDTIVFLPQTDKCMTEQ
P2 score [1]: 0.387
P1 score [2]: 0.189

B9: SEQ ID NO 25 (designed binder, not shown: small tags and cut ends; large carriers)
chain: QVSVQPNFQQDKFLGRWFIAGLASNSSWVREKSAALSQAKVVVAPATDGGLNVTVTVLRKNQCETYTVLLQPAGSLGSYSSRSPHFGSTVSLSVVETDYDQYALWYAQGSKGPGEDMRHAELWSRTQTPRAELKEKFTAFSKAQGFTEDTIVFLPQTDKCMTEQ
P2 score [7]: 0.543
P1 score [8]: 0.478

B10: SEQ ID NO 32 (designed binder, not shown: small tags and cut ends; large carriers)
chain: QDSTQNLIPAPPLISVPLQPGFWTERFQGRWFSVGMAGNAVQKERQSRFTMGSCIMELQEDNSYNLTFIGVRGQGCRYRILTWVPSSRPGQFTLGNIHSYPQIQSADVQVADTDYDQFAMVFWQTTSENKQYFAVELWGRTKGLSDELKERFVSFAKSLGLKDNNIVFSVPTDQCIDN
P2 score [9]: 0.379
P1 score [10]: 0.173

B13: SEQ ID NO 38 (designed binder, not shown: small tags and cut ends; large carriers)
chain: QVSVQPNFQQDKFLGRWFPAGFASNSSWDREKPAALSLAKMVVAPATDGGLNWTETYLRKNQCETTTHLLQPAGSLGSYSYRSPHFGSTRSLSVVETDYDQYALFYSQGSKGPGEDHRGAWLLSRTQTPRAELKEKFTAFSKAQGFTEDTIVFLPQTDKCMTEQ
P2 score [7]: 0.251
P1 score [8]: 0.403

B14: SEQ ID NO 24 (designed binder, not shown: small tags and cut ends; large carriers)
chain: QVSVQPNFQQDKFLGRWFYAGLASNSSWLREKCAALSSAKAVVAPATDGGLNVTETWLRKNQCETGTELLQPAGSLGSYSFRSPHRGSTLSLSVVETDYDQYALLYRQGSKGPGEDERRALLMSRTQTPRAELKEKFTAFSKAQGFTEDTIVFLPQTDKCMTEQ
P2 score [7]: 0.375
P1 score [8]: 0.452

B17: SEQ ID NO 36 (designed binder, not shown: small tags and cut ends; large carriers)
chain: QDSTQNLIPAPPLISVPLQPGFWTERFQGRWFIVGAAGNAVQKERQSRVTMGSVIWELQEDNSYNLTFISVRGQGCRYWIETWVPSSRPGQFTLGNIHSYPQIQSADVQVADTDYDQFAMVFVQYTSENKQYFMVRLLGRTKGLSDELKERFVSFAKSLGLKDNNIVFSVPTDQCIDN
P2 score [5]: 0.197
P1 score [6]: 0.326

B18: SEQ ID NO 37 (designed binder, not shown: small tags and cut ends; large carriers)
chain: QDSTQNLIPAPPLISVPLQPGFWTERFQGRWFLVGLAGNAVQKERQSRRTMSSLILELQEDNSYNETWINVRGQGCRYRIGTVVPSSRPGQFTLGNIHSYPQIQSLDVQVADTDYDQFAMVFTQFTSENKQYFYVRLMGRTKGLSDELKERFVSFAKSLGLKDNNIVFSVPTDQCIDN
P2 score [3]: 0.195
P1 score [4]: 0.319

B19: SEQ ID NO 30 (designed binder, not shown: small tags and cut ends; large carriers)
chain: QDSTQNLIPAPPLISVPLQPGFWTERFQGRWFNVGIAGNAVQKERQSRFTMLSLISELQEDNSYNWTLISVRGQGCRYRILTWVPSSRPGQFTLGNIHSYPQIQSLDVQVADTDYDQFAMVFAQGTSENKQYFEVILMGRTKGLSDELKERFVSFAKSLGLKDNNIVFSVPTDQCIDN
P2 score [9]: 0.378
P1 score [10]: 0.433

B20: SEQ ID NO 26 (designed binder, not shown: small tags and cut ends; large carriers)
chain: QVSVQPNFQQDKFLGRWFAAGYASNSSWRRERSAALSMAKVVVAPATDGGLNWTETILRKNQCETATNLLQPAGSLGSYSIRSPHAGSTSSMSVVETDYDQYALLYAQGSKGPGEDFRLAILLSRTQTPRAELKEKFTAFSKAQGFTEDTIVFLPQTDKCMTEQ
P2 score [7]: 0.498
P1 score [8]: 0.501

B22: SEQ ID NO 39 (designed binder, not shown: small tags and cut ends; large carriers)
chain: QVSVQPNFQQDKFLGRWFLAGLASNSSWAREKIAALSDAKFVVAPATDGGLNGTVTVLRKNQCETATGLLQPAGSLGSYSWRSPHDGSTLSLSVVETDYDQYALVYEQGSKGPGEDLRIAALWSRTQTPRAELKEKFTAFSKAQGFTEDTIVFLPQTDKCMTEQ
P2 score [7]: 0.426
P1 score [8]: 0.286

B23: SEQ ID NO 23 (designed binder, not shown: small tags and cut ends; large carriers)
chain: QVSVQPNFQQDKFLGRWFLAGAASNSSWLREKNAALSYAKLVVAPATDGGLNSTVTRLRKNQCETETRLLQPAGSLGSYSWRSPHLGSTLSLSVVETDYDQYALVYAQGSKGPGEDVRGAELLSRTQTPRAELKEKFTAFSKAQGFTEDTIVFLPQTDKCMTEQ
P2 score [9]: 0.456
P1 score [10]: 0.387

Further lines, with some results ahead:

P1 score [4]: 0.173
B2: SEQ ID NO 47 (designed binder, not shown: small tags and cut ends; large carriers)
chain: TVPDRSEIAGKWYVVALASNTEFFLREKDNFKMAMARISFLGEDELKVSEAVPTPNGCFKAEFTGKKTSDDGEVYWSQTAKYKVEVLDTDYKSYAVIYATNVKDGRTVHAMNLYSRSPEVSPAATAIFRKLAGERNYTDEMVAMLPRQEECTVDEV
P2 score [3]: 0.466

P1 score [6]: 0.323
B3: SEQ ID NO 41 (designed binder, not shown: small tags and cut ends; large carriers)
chain: QVSVQPNFQQDKFLGRWFYAGMASNSSWLREKSAALSAAKFVVAPATDGGLNFTETFLRKNQCETTTILLQPAGSLGSYSVRSPHVGSTVSISVVETDYDQYALFYVQGSKGPGEDNRMALLGSRTQTPRAELKEKFTAFSKAQGFTEDTIVFLPQTDKCMTEQ
P2 score [5]: 0.217

P1 score [8]: 0.225
B4: SEQ ID NO 46 (designed binder, not shown: small tags and cut ends; large carriers)
chain: TVPDRSEIAGKWYVVALASNTEFHLREKDNLKVAMARISFLGEDELKVSEAVPTPNGCMKHESTWKKTSDDGEVYRSRKAKQKVEVLDTDYKSYAVIYATRVKDGRTHHWMLLYSRSPEVSPAATAIFRKLAGERNYTDEMVAMLPRQEECTVDEV
P2 score [7]: 0.289

P1 score [10]: 0.408
B7: SEQ ID NO 43 (designed binder, not shown: small tags and cut ends; large carriers)
chain: TVPDRSEIAGKWYVVALASNTEFVLREKDWLKLAMARISFLGEDELKVSMTTPGPNGCTKWERTLKKTSDDGEVYSSPRAKEKVEVLDTDYKSYAVIYATAVKDGRTLHEMWLYSRSPEVSPAATAIFRKLAGERNYTDEMVAMLPRQEECTVDEV
P2 score [9]: 0.359

fold affinity over an otherwise identical peptide with a different P1 [11]: > 2 fold
B8: SEQ ID NO 56 (designed binder, not shown: small tags and cut ends; large carriers)
chain: QIPLCANLVPVPITNATLDRITGKWFLIASAIRNEEYNKSVQAVQSTAFYWTPNKTEDTIFARYYQTRQNQCFYNSSYLNVQRENGTVSWYAGGREFVSHLLFLRYTKTLMWGGYLDDEKNWGLEFYADKPETTKEQLGEFYEALDCLRIPRSDVMYTDWKKDKCEPLEKQHEKERKQEEGES

fold affinity over an otherwise identical peptide with a different P1 [12]: > 2 fold
B11: SEQ ID NO 54 (designed binder, not shown: small tags and cut ends; large carriers)
chain: QIPLCANLVPVPITNATLDRITGKWFVIASATRNEEYNKSVQRQQGTVFYYTPNKTEDTIFVRRYQTRQNQCFYNSSYLNVQRENGTVSFYEGGRELVFHLLFLRDTKTLMWGLYLDDEKNWGLEFFADKPETTKEQLGEFYEALDCLRIPRSDVMYTDWKKDKCEPLEKQHEKERKQEEGES

P1 score [10]: 0.241
B12: SEQ ID NO 44 (designed binder, not shown: small tags and cut ends; large carriers)
chain: TVPDRSEIAGKWYVVALASNTEFFLREKDRIKTAMARISFLGEDELKVSLARPAPNGCHKAEWTFKKTSDDGEVYTSFLAKFKVEVLDTDYKSYAVIYATPVKDGRTRHEMLLYSRSPEVSPAATAIFRKLAGERNYTDEMVAMLPRQEECTVDEV
P2 score [9]: 0.485

P1 score [6]: 0.357
B15: SEQ ID NO 40 (designed binder, not shown: small tags and cut ends; large carriers)
chain: QVSVQPNFQQDKFLGRWFYAGLASNSSWIREKYAALSLAKSVVAPATDGGLNWTETSLRKNQCETGTVLLQPAGSLGSYSLRSPHHGSTISVSVVETDYDQYALVYRQGSKGPGEDSRRAILMSRTQTPRAELTEKFTAFSKAQGFTEDTIVFLPQTDKCMTEQ
P2 score [5]: 0.144

fold affinity over an otherwise identical peptide with a different P1 [13]: 2 fold
B16: SEQ ID NO 55 (designed binder, not shown: small tags and cut ends; large carriers)
chain: QIPLCANLVPVPITNATLDRITGKWFRIASAFRNEEYKKSVQEVQTTSFYFTPNKTEDTIFARFYQTRQNQCFYNSSYLNVQRENGTVSLYSGGREAVLHLLFLRDTKTLMLGVYLDDEKNWGLSFYADKPETTKEQLGEFYEALDCLRIPRSDVMYTDWKKDKCEPLEKQHEKERKQEEGES

fold affinity over an otherwise identical peptide with a different P1 [14]: > 2 fold
B21: SEQ ID NO 52 (designed binder, not shown: small tags and cut ends; large carriers)
chain: QIPLCANLVPVPITNATLDRITGKWFIIASASRNEEYNKSVQQAQSTAFYITPNKTEDTIFLRRYQTRQNQCFYNSSYLNVQRENGTVSYYRGGRERVSHLLFLRDTKTLMIGSYLDDEKNWGLVFGADKPETTKEQLGEFYEALDCLRIPRSDVMYTDWKKDKCEPLEKQHEKERKQEEGES

Source: patent US20230220589A1
